Laboratory results: paper doi:10.1101/2022.04.25.489375 (bioRxiv, 2022)

Legend:
[1] = target: Phosphomannose isomerase from T. kodakarensis (T. kodakarensis); experiment: SEC
SEC = target: the molecule itself; experiment: SEC

stoichiometry N [1]	Molecule	stoichiometry N (SEC)
2	Phosphomannose isomerase from T. kodakarensis (enzyme)	–
–	Phosphomannose isomerase from T. barophilus (enzyme, UniProt F0LL70 1-113, looked up) MKAEIKEFIDRGTYRKAPLFEGELPEGSYAQIVEIKPKQTVPKHYHEKQYELFYIISGQAKLGIEEREYDAKPGDIFLVKPKTVHWVVNKKEEPFRLFVIKLNYFGDDSVWLE	2
